These results are taken from article PMC5344537.

Experiment [1] concerns the target intercellular adhesion molecule-1 (ICAM-1) of epithelial cells (human (endogenous in primary tonsil, cervical and foreskin keratinocytes)) (UniProt P05362).
Experiment [2] has the same target. The source holds these as a separate data set.

Where “and” joins values, the source holds several entries; their conditions need not be identical. Identical values can stand only once.

Chain of UniProt P05362 (P05362 28-532): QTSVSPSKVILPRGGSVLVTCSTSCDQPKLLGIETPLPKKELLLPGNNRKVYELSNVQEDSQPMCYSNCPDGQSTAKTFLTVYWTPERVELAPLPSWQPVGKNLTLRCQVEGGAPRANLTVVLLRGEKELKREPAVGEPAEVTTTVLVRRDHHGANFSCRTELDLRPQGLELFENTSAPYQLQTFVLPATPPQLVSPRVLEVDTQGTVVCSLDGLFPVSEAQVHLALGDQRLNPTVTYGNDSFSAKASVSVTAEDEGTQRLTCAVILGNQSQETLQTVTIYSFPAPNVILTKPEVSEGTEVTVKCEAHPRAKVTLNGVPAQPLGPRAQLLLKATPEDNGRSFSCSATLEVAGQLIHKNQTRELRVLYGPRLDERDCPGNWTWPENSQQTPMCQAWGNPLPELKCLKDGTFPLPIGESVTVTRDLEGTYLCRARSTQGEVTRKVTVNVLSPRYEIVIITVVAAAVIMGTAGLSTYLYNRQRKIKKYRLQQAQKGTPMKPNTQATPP

Regarding “lymphocyte receptor function-associated antigen-1 (LFA-1) (from UniProt P20701 26-1170; P05107 23-769) (complex)”, the reduction of HIV-1 SF33 spread from AP and BL surfaces of polarized tonsil epithelial cells to activated PBMC, in the presence of antibodies against ICAM-1 and LFA-1 (ELISA p24 of PBMC after 7 days) in experiment [1] is 65 to 70%. Further, in experiment [2], the reduction of HIV-1 SF33 spread from AP and BL membranes of polarized cervical and foreskin epithelial cells to activated PBMC, in the presence of antibodies to LFA-1 and ICAM-1 (ELISA p24) is 40% and 50%; the reduction of spread of R5-tropic HIV-1 SF170 from polarized cervical and foreskin epithelial cells to CD4+ T lymphocytes, in the presence of antibodies to LFA-1 and ICAM-1 (ELISA p24) was determined as 70%; the reduction of spread of X4-tropic HIV-1 92UG029 from polarized cervical and foreskin epithelial cells to CD4+ T lymphocytes, in the presence of antibodies to LFA-1 and ICAM-1 (ELISA p24) is 50%.
